We go through 1 molecule from US20040058366, “Novel clock gene bmal2” (published 2004).

For one data set, the target named is T1, cCLOCK (Gallus gallus, UniProt Q8QGQ6 Q8QGQ6:1-875).
T1 sequence: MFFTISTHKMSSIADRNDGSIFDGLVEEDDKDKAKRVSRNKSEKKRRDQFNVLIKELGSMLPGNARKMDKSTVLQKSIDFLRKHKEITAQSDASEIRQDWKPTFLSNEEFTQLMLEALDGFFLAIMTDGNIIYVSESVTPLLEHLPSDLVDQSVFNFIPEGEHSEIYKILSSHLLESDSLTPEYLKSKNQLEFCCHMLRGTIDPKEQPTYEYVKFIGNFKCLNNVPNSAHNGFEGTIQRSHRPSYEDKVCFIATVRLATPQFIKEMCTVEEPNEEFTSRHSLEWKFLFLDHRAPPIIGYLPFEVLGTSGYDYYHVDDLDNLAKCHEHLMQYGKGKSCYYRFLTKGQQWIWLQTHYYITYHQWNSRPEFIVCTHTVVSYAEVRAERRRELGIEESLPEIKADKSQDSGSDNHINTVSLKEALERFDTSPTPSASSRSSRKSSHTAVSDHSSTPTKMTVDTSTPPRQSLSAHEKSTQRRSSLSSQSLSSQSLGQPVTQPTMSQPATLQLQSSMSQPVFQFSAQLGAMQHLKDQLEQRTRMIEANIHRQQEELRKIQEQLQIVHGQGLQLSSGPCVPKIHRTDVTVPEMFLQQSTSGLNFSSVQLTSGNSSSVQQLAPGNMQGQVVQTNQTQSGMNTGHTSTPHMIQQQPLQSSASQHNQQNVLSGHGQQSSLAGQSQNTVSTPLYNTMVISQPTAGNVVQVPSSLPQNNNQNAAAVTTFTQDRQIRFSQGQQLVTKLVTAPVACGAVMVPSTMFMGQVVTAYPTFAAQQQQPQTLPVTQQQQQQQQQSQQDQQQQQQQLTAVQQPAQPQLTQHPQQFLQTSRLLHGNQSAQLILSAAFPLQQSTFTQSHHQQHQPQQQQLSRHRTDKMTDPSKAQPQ
Put plainly: EMSA; no specific band with cCLOCK alone. The settings on record: label: 32P; within a 39 bp EcoRI fragment excised from pCR2.1. The text has this: (§1) For preparation of the probe, oligonucleotides [cP2E1-S: 5′-GTGTCACACGTGAGGCTTA-3′ (Seq. ID No. 59) and cP2E1-AS: 5′-TAAGCCTCACGTGTGACAC-3′ (Seq. ID No. 60)] were synthesized that correspond to the E-box sequence and its flanking sequences within a putative promoter/enhancer region of cPer2 gene. These oligonucleotides synthesized were annealed together and subcloned into a pCR2.1 vector using TOPO-TA cloning kit (Invitrogen, Calif.), from which a 39 bp fragment was excised with a restriction enzyme EcoRI and used. The above-mentioned cBMAL1, cBMAL2 and cCLOCK were prepared by being transcribed and translated in vitro from an expression plasmid containing the cDNA of cBmal1, cBmal2 or cClock with the aid of TNT-T7 Quick Coupled Transcription/Translation System (Promega). […]
(§2) 5 μL each of the protein mixtures thus obtained (BMAL1+BMAL2, BMAL1+CLOCK, BMAL2+CLOCK) was added with 32 μL of buffer [25 mM Hepes-KOH (pH 7.6), 100 mM KCl, 0.1 mM EDTA, 10% (v/v) glycerol, 7.5 mM MgCl₂, 1 mM DTT and 1 μg denatured salmon sperm DNA] containing a ³²P-labeled probe (33 fmoles, 1.3×10⁵ cpm) andwas incubated for 20 min at 23° C. After the incubation, each mixture was separated by a 6% polyacrylamide gel electrophoresis and analyzed similarly as in Example 7 using a FLA2000 bioimage analyzer (FUJI PHOTO FILM). […]

The target of another data set is cBMAL1 (Gallus gallus, UniProt Q9I8T7 Q9I8T7:1-633). Put plainly: EMSA; no specific band with cBMAL1 alone. The following applies: label: 32P; within a 39 bp EcoRI fragment excised from pCR2.1.
Description: as §1, §2
Background: Mobility shift assays separate free from complexed probe on a gel.

Data set [1] concerns the target T2, cBMAL2-cCLOCK heterodimer (Gallus gallus, UniProt Q8QGQ7;Q8QGQ6 Q8QGQ7:1-622,Q8QGQ6:1-875).
T2 sequence 1: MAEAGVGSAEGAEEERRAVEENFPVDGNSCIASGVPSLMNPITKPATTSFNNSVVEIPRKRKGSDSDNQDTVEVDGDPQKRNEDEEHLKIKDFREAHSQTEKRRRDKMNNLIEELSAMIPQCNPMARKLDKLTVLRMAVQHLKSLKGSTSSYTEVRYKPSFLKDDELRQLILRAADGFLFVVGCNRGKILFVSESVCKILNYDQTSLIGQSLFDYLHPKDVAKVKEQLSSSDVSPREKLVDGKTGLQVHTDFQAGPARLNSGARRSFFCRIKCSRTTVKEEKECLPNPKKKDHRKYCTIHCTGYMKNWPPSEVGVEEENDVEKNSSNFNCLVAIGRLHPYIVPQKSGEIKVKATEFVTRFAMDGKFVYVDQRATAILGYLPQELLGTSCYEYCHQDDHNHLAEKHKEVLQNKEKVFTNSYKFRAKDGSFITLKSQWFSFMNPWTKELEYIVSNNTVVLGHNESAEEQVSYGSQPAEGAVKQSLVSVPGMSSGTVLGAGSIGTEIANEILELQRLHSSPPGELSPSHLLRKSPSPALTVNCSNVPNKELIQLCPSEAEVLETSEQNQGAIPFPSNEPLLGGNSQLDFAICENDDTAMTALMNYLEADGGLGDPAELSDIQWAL
T2 sequence 2: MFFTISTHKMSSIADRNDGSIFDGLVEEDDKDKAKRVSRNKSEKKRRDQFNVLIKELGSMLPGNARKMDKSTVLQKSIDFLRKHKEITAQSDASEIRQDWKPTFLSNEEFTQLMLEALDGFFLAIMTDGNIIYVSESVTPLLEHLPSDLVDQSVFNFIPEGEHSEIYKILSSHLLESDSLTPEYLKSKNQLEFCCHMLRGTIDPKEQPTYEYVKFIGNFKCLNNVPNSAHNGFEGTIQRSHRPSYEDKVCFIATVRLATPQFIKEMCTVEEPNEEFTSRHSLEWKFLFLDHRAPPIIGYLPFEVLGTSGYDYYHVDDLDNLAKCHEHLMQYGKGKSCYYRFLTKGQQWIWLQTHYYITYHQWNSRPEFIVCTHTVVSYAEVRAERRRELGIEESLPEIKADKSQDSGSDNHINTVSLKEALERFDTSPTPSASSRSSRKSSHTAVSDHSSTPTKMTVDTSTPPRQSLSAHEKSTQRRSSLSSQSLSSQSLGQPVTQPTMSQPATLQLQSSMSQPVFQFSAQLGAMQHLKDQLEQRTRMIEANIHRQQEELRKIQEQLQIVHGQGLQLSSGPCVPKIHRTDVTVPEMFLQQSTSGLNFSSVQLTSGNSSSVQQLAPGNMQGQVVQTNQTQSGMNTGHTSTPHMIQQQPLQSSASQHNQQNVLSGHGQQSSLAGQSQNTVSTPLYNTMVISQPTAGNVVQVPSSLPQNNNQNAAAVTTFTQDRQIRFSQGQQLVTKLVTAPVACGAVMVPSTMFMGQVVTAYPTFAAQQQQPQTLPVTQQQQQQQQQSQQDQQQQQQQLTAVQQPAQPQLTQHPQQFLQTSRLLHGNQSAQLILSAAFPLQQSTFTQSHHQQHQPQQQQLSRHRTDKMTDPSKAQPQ
Put plainly: EMSA; two or three specific complexes; 7.5 mM MgCl2, 100 mM KCl, pH 7.6, 23 C. The following applies: tags: TNT-T7 coupled transcription/translation; label: 32P; within a 39 bp EcoRI fragment excised from pCR2.1.
Description: as §1, §2

In data set [2] the target is cBMAL1-cCLOCK heterodimer (Gallus gallus, UniProt Q9I8T7;Q8QGQ6 Q9I8T7:1-633,Q8QGQ6:1-875). The description is as above. The following applies: tags: TNT-T7 coupled transcription/translation; label: 32P; within a 39 bp EcoRI fragment excised from pCR2.1.
Description: as §1, §2

The target in a further data set is T3, cBMAL2 (Gallus gallus, UniProt Q8QGQ7 SEQ:1-622).
T3 sequence: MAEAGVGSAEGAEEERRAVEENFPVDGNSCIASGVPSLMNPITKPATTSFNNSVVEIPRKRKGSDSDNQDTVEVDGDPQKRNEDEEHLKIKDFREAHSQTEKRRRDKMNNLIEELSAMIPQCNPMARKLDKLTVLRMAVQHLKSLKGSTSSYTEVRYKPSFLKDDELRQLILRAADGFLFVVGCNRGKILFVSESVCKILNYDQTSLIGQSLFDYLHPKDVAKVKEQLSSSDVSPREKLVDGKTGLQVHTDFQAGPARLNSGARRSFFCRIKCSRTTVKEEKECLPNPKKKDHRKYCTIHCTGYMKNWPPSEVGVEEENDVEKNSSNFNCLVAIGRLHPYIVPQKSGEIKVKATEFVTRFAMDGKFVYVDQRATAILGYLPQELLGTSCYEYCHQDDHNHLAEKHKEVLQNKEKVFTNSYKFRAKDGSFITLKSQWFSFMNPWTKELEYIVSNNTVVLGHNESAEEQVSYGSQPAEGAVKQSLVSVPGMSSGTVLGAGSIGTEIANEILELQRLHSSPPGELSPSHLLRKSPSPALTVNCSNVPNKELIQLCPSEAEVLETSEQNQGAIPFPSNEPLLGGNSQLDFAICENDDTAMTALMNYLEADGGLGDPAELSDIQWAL
Put plainly: EMSA; no specific band with cBMAL2 alone. The settings on record: label: 32P; within a 39 bp EcoRI fragment excised from pCR2.1.
Description: as §1, §2

cBMAL1-cCLOCK heterodimer, sequence (Q9I8T7 whole entry, the tested form may be a part, one chain of several): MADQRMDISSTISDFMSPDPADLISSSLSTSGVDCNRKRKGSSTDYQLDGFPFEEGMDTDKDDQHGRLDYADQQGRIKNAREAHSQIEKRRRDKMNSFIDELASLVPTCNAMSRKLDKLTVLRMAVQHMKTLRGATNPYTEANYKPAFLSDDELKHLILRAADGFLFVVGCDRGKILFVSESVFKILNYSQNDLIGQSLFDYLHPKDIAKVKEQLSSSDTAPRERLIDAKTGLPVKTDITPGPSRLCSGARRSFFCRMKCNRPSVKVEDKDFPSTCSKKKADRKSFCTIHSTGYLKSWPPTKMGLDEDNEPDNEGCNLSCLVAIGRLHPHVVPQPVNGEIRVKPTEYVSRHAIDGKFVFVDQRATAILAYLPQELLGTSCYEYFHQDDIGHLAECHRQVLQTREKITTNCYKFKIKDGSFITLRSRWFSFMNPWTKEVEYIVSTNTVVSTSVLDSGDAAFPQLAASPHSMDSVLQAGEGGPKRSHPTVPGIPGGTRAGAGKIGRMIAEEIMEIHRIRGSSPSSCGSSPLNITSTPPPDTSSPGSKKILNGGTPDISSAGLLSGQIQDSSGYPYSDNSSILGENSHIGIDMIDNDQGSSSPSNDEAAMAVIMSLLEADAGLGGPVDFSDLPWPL
cBMAL1, sequence (Q9I8T7 whole entry, the tested form may be a part, one chain of several): as above

B1: cPer2 E-box probe (dsDNA)
DNA 1: GTGTCACACGTGAGGCTTA
DNA 2: TAAGCCTCACGTGTGACAC
Turning to B1, the binding result was “no binding” with cCLOCK; “no binding” with cBMAL1; “binds” in data set [1]; “binds” in data set [2]; “no binding” with cBMAL2.
